Assay: yeast display, Sf9 membrane polyspecificity reagent, FACS + sequencing; frameworks hold sequencing errors
Method in brief: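 Galactose induction of a Saccharomyces cerevisiae BJ5465 synthetic nanobody display library ran 36–48 hours. The cells were then stained for 1 hour at 4 °C with 10% biotinylated, detergent-solubilized Sf9 membrane reagent, pulled down on streptavidin microbeads and FACS-sorted into low and high (top ~1%) gates on expression and reagent-binding fluorescence. Labels for polyreactivity follow the gate of origin.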

| Sequence | polyreactivity (PSR sort gate) |
| --- | --- |
| QVQLVESGGGLVQAGGSLRLSCAASGFTFEGYAMGWYRQAPGKERELVAAISDNGGRTYYADSVKGRFTISRDNAKNTVYLQMHPLTPEETEVYYCNARPAYSGPDYDYYHGRRYDYWGQGTQVTVSS | low polyreactivity |
| QVQLVESGGGLVQAGGSLRLSCAASGRIFHHNVMGWYRPAPGKERELVAAISQSGGSTYYADSVKGRFTISRDNAKYTVYVQMNSLKPEDTAVYYCNAGAAGRRYNYWGQGTQVTVSS | low polyreactivity |
| QVQLVESGGGLVQAGGSLRLSCSASGRIFRINAMGWYRQAPGKDRELVASISRRGGNTYYADSVKGRFTISRDNAKNTVYLQMNSLKPEDTAVYYCAADVHTPALYTYAAGDYWGQGTQVTVSS | low polyreactivity |
| QVQLVESGGGLVQAGGSLRLSCAASGRIFHYAMGWYRQAPGKERELVAGISKRGGSTYYADSVKGRFTISRDNAKNTVYLQMNSLKPEDTAVYYCAAGRAYDGTKHDYWGQGSQVTVSS | high polyreactivity |
| QVQLVESGGGLVQAGGSLRLSCAASGSTFVFYTMGWYRQAPGKEREFVASISGSGGSTYYADSVKGRFTISRDNAKNTVYLQMNSLKPEDTAVYYCAAGYPYYYWTPYYYWVQGTQVTVSS | high polyreactivity |
| QLQLVESGRGLVQAGGSLRLSCAGSGFIVGYNAMGSYRQAPGKDRELVAAISSGGSTYYADSVKGRFTISRVNAKNTVYLQMNSLKPEDTAVYYCAVELGYPIQSYALWWDFEYWGQGTQVTVSS | low polyreactivity |
| QVQLVESGGGLVQAGGSLRLSCAASGYTFYWNVMGWYRQAPGKERELVAVIDWSGGSTHYADSVKGRFTISRDNAKNTVYLQMNSLKPEDTAVYYCAAVDIRLEWDYWFQPTYDYWGQGTQVTVSS | low polyreactivity |
| QVQLVESGGGLVQAGGSLRLSCAASGSIFEGYAMGWYRQAPGKERELVARITSDDDSTYYADSVKGRFTISRDNAKNTVYLQMNSLKPEDTAVYYCNADYYCTSLAMDSWGQGTQVTVSS | low polyreactivity |
| QVQLVESGGGLVQAGGSLRLSCAASGSTFPVNAMGWYRQAPGKERELVAAISSTGTSTYYADSVKGRFTISRDNAKNTVYLQMNSLKPEDTAGYYCAAETWVWGYVLYDYWGQGTQVTVSS | high polyreactivity |
| QVQLVESGGGLVQAGGSLRLSCAASGSIFGSYTMGWYRQAPGKERELVAAITSSGGGTYYADSVKGRFTISRDNAKNTVYLQMNSLKPEDTAVYYCAAEYRDGYRFSYDYWGQGTQVTVSS | low polyreactivity |
| QVQLVESGGGLVQAGGSLRVSCAASGSTFQYNAMGWYRQAPGKERELVAVITRRGGRTYYADSVKGRFTISRDNAKNSVYLQLNSLKAEDTAVYYCAAYFDYTHRFYYWGQGTQVTVSS | high polyreactivity |
| QVQLQESGGGLVQADGSLRLSCAASGSIFGYYYMGWYRQAPGKDRELVATINICGITNYADSVKGRFTISRDNAKNTVYLQMNSLKPDDNAVYYCAADEYAQRDLGYWGQGTQVTVSS | low polyreactivity |
| QVQLVESGGGLVQAGGSLRLSCAASGGTFVRYAMGGYRPAPGKERELVAAISSRGGSTYYADSVKGRFTISRDNAKNTVFLQMNSLKPEDTAVYYCAARPGYYDFYWGQGTQVTVSS | high polyreactivity |
| QVQIVESGGGLVQAGGSLRLSCAASGLTFAYYAMGRYRQAPGKERELVAAISYSGGSTYYADSVKGRFTISRDNAKITVYLQMNSLKPEDTAVYYCNAYSRKTPHLYYYWGQGTQVTVSS | high polyreactivity |
| QVQLVESGGGLVQEGGSLRLSCAASGSTFRRNAMGWYRQAPGKERELVAAISTSGGTTYYADSVKGRFTISRDYAKNTVYLQMNSLKPEDTAVYYCAAGGKKRDDYWGQGTQVTVSS | high polyreactivity |
| QVQLEESGGGLVQAGGSLRLSCAASGGIFPAYAMGWYRQAPGKERELVASISANGGRTYYADSVKGRFTISRDNAKNTVYLQMNSLKPEDTAVYYCNASSLSGSWRFYYWGQGTQVTVSS | high polyreactivity |
| QVQLVESGGGLVQAGGSLRLSCAASGRTFRFYDMGWYRQAPGKERELVAAISRGGGSTYYADSVKGRFTISRDNAKNTVYLQMNSLKPEDTAVYYCAAKPYKTRSSYWGDYYWGQGTQVTVSS | high polyreactivity |
| QVQLVESGGGLVQAGGSLRLSCAASGITFYGYDMGWYIQAPGKERELVAAISRSGGSTYYADSVKGRFTISRDNAKNTVYLQMNSLKPEDTAVYYCAADKQGYRGRTPYRYYSWGQGTQVTVSS | high polyreactivity |
| QVQLVESGGGLVQAGGSLRLSCAASGSTFTSNAMGWYREAPGKEREFVAAISVGGGITYYADSVKGRFTISRDNAKNTVSLQMNSLKPEDTAVYYCAADGEYPHSEDFEYWGQGTQVNVSS | low polyreactivity |
| QVQHVESGGGLVQAGGSLRLSCAASGFTYFSNAMGWYREAPGKERELVASITNDGSTYADSVKGRFTISRDNAKNTVYLQMNRLKAEDTAVYYCAARFPKWRYSPRTGERFDYWGQGTQVTVSS | low polyreactivity |
| QVQLVESGGGLVQAGGSLRLSCAASGFIIVRNALGWYRQAPGKERELVAAMRWSGGSTYYADSEKGRFTISRDNSKNTDYLQMNSLKPEDTAVYYCAARLWLKVQYLRFFVYDYWGQGTQVTVSS | low polyreactivity |
| QVQLVESGGGLVQAGGSLRIICAASGRIFRENAMGWYRQAPGKAREWVAAISSGGSTYYADSVKGRFTISRDNAKNTDYLQMNSLKPEDPAVYYCAADLSWSRVVFGDYDYWGQGTHVTVSS | low polyreactivity |

| Sequence | polyreactivity (PSR sort gate) |
| --- | --- |
| QVQLVESGGGLVKAGGSLRLSCAASGFNFSSYALGWYRPAPGKERELVAAISYSGGSTYYADSVKGRFTISRDNAKNTVYLQMNSLKPEDTAVYYCNKLRGYGLRYIVSLDYWGQGTQVSVSS | high polyreactivity |
| QVQLVESGGGLVQAGGSLRLSCAASGSTFFVNTMGWYRQAPGKERELVAAIRRRGGSTYYADSVKGRFTISRDNAKNTVYLQMNSLIPEDTAVYYCAADSYSRYYYWGQGTQVTVSS | high polyreactivity |
| QVQLVESGGVLDQAGGSLRLRCAASGSTYYRNAMGWYRQAPGKERELVATINRGGSTYYADSVKWRFTISRDNAKNTVYLQMNSLKPEDPAVYYWAKDPYYAGRYRGDYWGQGTQVTVSS | high polyreactivity |
| QVQLVESGGGLVQAGGSLRLSCAASGITFSQYAMGWYTQAPGKERELVASISEGDGTNYADSVKGRFTISRDNAKNTVYLQMNSLKPEDTAVYYCAAPRPYYWSRRYYRAFDYWGQGTQVTVSS | high polyreactivity |
| QVQLVESGGGLVQAGGSLRLSCAASGRIFRRNTMGWSRQAPGKERELVAAITSSGGSTYADSVKGRFTISRDNAKKTVYLQMNSLKPEDTAVYYCATYVAYHRGYRTYDHWGQGTQVTVSS | low polyreactivity |
| QVQLVESGGGLVQAGGSLRLSCAASGSIFSRNDMGWYRLAPGKERELVAAITSDDTSTYYADSVNGRFTISRDNAKNTVYLQMNSLKPEDTAVYYCAADYGNPFDYWGQGTQVTVSS | low polyreactivity |
| QVQLVESGGGLVQAGGSLRLSCAASGSIIVDNAMGWYRQAHGKERELVAAITDSGGRTYYADSVKGRYTISRDNAKNTVYLQMNSLKPEDTAVYYCNKQYIYTGRYSDGFDYCGQGTQVTVSS | low polyreactivity |
| QVQLVESGGGLVQAGGSLRLSCAASGITFGDYAMGWYRQAPGKERELVAAISKRGGSTYYADSVKGRFTISRDNAKNTVYLQMNSLKPEDTAVYYCAADYYINAYYYWGQGTQVTVSS | high polyreactivity |
| QVQLVESGGGLVQAGGSLRLSCAASGLIIRPYAMGWYRQAPGKERELVAAITSGGSTDYADSVKGRFTISRVNAKNSVYLQMYSRKPEDTAVYYCNGDIYPHDGYPWQGDYDYWGQGTQVTVSS | low polyreactivity |
| QVQLVESGGGLVQAGGSLRLSCAASGSTLLYYAKGWYRQAPGKERELVAAISWRGGSTYYADSVKGRFTISRDNAKYTVYLQMNSLKPEDTAVYYCAARSLRLVGPYYYWGQGTQVTVSS | high polyreactivity |
| QVQLLESGGGLVQAGGSLRLSCAASGFNFGVYAMGWYRQAPGKERELVAAITRSGGSTYYADSVKGRYTISRDNAKNSVYLQMNSLNPEDTAVYYCAARARDHYGYWGQGTQVSVSS | high polyreactivity |
| QVQLVESGGGLVQAGGSLRLSCPASGSIIIRNAMGWYRQAPGKERELVAAISIGDGSTYADSVKGRFTISRDNAKNTVYLQMNSLKPEDTAVYYCAADRYGFYLESYYWGQGTQVTVSS | low polyreactivity |
| QVQLVESGGGLVQAGGSLRLSCAPSGGTFIYYAMGWYRQAPGKERELVAAISSGGSTYYADSVKGRFTISRDNAKNTVYLQMNSLKPEDTAVYYCAKRRAVQIVDLEYWRQGTQVTVSS | low polyreactivity |
| QVQLVESGVGLVQAGGSLRLSCAASGSTFKGYTMGWYRQAPGKERELVAAITYSGGRTYYADSVKGRFTISRDNAKNTVYLQMNSLKPEDTAVYYCAARQQWVKVEYDYWGQGTQVTVSS | high polyreactivity |
| QVQLVESGGGLVQAGGSLSLSCAASGIIIRRYAMGWYRQAPRKERELVATITWSGGSTYYADSVKGRFTISRDNAKNTVYLQMNSLKPEDTAVDYCAKLTSYRGRYNYWGQGTQVTVSS | high polyreactivity |
| QVQLVESGGGLVQAGGSLRLSCAASGRTFKYYTMGWYRQAPGKERELVAVIRGTGSTYYADSVKGRFTISRDNAKNTVYLQMNSLKPEDTAVYYCAVQVRRRYNYWGQGTQVTVSS | high polyreactivity |
| QVQLVESVGGLVQAGGSLRLSCAASGFTFRRYAMGWYRQAPGKERELVAAISYSGGITYYADSVKGRFTISRDNAKNTVYLQMNSLKPEDTAVYYCAADYFAPYKTYEYWGQGTQVTVSS | high polyreactivity |
| QVQLVESGGGLVQAGGSLRLSCAASGFISGSNVMGWYRQAPGKERELVAAINWSGDNTYYADSVKGRFTISRDNAKNTVYLQMNSLKPEDTAVYYCNADVYSYATPEMDYWGQGTQVTVSS | low polyreactivity |
| QVQLVESGGGLVQAGGSLRLSCAASGSTFSQYAMGWYRQAPGKETELVAVITRSGGSTYYADSVKGRFTISRDNAKNTVYLQMNSLKPEDTAVYYCAARSGRYKGDYWGQGTQVTVSS | low polyreactivity |
| QVQLVESGGGLVQAGGSLRLSCAASGSIFDPNAMGWYRQAPGKERELVAAISTSTGNTYYADSVKGRCTISRDNAKNTVYLQMNSLKPEDTAVYYCAAKGTPSYGSYHYDMDYWGQGTQVTVSS | low polyreactivity |
| QVQLVESGGGLVQAGGSLRLSCDASGLTFSWYAMGWSRQAPGKERELVAAISRSGGSTYYADSVKGRFSISRDKAKNTVYLQMNSLKPEDTGVYYCAAETDIAPDYDYWGQGTQVTVSS | low polyreactivity |
